Publication PMC8575367
Substitutions are numbered along the chain they refer to. Like-named read-outs stand apart in the source and are kept apart here.

What was measured:
Experiment in all cases: fluorescence anisotropy
[1] = biological target: T1, CPSF30-5F (five CCCH domains) (Bos taurus, UniProt O19137 33-170)
[2] = biological target: T1, CPSF30-5F (five CCCH domains); remark: listed apart in the source
[3] = biological target: T1, CPSF30-5F (five CCCH domains); remark: listed apart in the source
[4] = biological target: T1, CPSF30-5F (five CCCH domains); remark: listed apart in the source
[5] = biological target: T1, CPSF30-5F (five CCCH domains); remark: listed apart in the source
[6] = biological target: T1, CPSF30-5F (five CCCH domains); remark: listed apart in the source
[7] = biological target: T1, CPSF30-5F (five CCCH domains); remark: listed apart in the source
[8] = biological target: T1, CPSF30-5F (five CCCH domains); remark: listed apart in the source
[9] = biological target: T1, CPSF30-5F (five CCCH domains); remark: listed apart in the source
[10] = biological target: T1, CPSF30-5F (five CCCH domains); remark: listed apart in the source
[11] = biological target: CPSF30-FL (five CCCH + CCHC zinc knuckle) (Bos taurus, UniProt O19137 1-243)
CPSF30-FL (five CCCH + CCHC zinc knuckle), sequence (O19137 whole entry): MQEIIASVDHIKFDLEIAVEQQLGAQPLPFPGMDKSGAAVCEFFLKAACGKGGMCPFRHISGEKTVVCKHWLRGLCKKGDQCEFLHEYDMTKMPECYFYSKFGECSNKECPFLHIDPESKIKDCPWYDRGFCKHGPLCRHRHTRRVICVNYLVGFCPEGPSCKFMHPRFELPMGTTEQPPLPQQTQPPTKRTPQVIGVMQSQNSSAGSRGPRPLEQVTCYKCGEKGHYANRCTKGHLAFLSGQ

T1 sequence (O19137 33-170): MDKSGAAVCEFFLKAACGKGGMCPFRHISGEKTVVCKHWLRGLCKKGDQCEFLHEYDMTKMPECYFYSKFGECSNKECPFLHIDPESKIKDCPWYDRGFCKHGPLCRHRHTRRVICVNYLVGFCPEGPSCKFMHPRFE

B1: P2AtoG (ssRNA)
RNA: UCUCACUUUAAUAGUAAAAAUCAUGCUUAU
apparent K (half saturation) [1]: 376 ± 12 nM

B2: ARE-24 (ssRNA)
RNA: AUUUAUUUAUUAUUUAUUUAUUUA
apparent K (half saturation) [2]: 265 ± 31 nM

B3: BTHA (β-thalassemia) (ssRNA)
RNA: B1 RNA with G14A, U15C
apparent K (half saturation) [3]: 148 ± 9 nM

B4: ARE-18 (ssRNA)
RNA: UUAUUAUUUAUUUAUUUA
apparent K (half saturation) [3]: 671 ± 49 nM

B5: P6AtoC (ssRNA)
RNA: B1 RNA with G14A, A18C
apparent K (half saturation) [1]: 309 ± 26 nM

B6: Least freq fl (UCG flanks) (ssRNA)
RNA: UCUCACUUUUCGAAUAAAUCGCAUGCUUAU
apparent K (half saturation) [4]: 309 ± 25 nM

B7: P2AtoU (ssRNA)
RNA: B1 RNA with G14U
apparent K (half saturation) [5]: 207 ± 0.6 nM

B8: ATHA (α-thalassemia) (ssRNA)
RNA: B1 RNA with G14A, A18G
apparent K (half saturation) [6]: 135 ± 6.3 nM

B9: FABRY (ssRNA)
RNA: B1 RNA with G14U, A18G
binding result [7]: no binding

B10: P5AtoC (ssRNA)
RNA: B1 RNA with G14A, A17C
apparent K (half saturation) [5]: 278 ± 29 nM

B11: ARE-30 (ssRNA)
RNA: UUUAUUAUUUAUUUAUUAUUUAUUUAUUUA
apparent K (half saturation) [8]: 163 ± 10 nM

B12: ARE-16 (ssRNA)
RNA: AUUAUUUAUUUAUUUA
apparent K (half saturation) [9]: 1000 ± 82 nM

B13: ARE-38 (ssRNA)
RNA: GUGAUUAUUUAUUAUUUAUUUAUUAUUUAUUUAUUUAG
apparent K (half saturation) [10]: 141 ± 5 nM

B14: LUPUS (ssRNA)
RNA: B1 RNA with G14A, A17G
binding result [7]: no binding

B15: IPEX (ssRNA)
RNA: B1 RNA with G14A, A16G
binding result [7]: no binding

B16: P4AtoC (ssRNA)
RNA: B1 RNA with G14A, A16C
apparent K (half saturation) [1]: 335 ± 38 nM

B17: α-syn24 (labeled) (ssRNA)
RNA: CACUUUAAUAAUAAAAAUCAUGCU
binding result [11]: binds

B18: Most freq fl (AAA flanks) (ssRNA)
RNA: B1 RNA with U12A, G14A, U21A
apparent K (half saturation) [6]: 226 ± 1.6 nM

B19: ARE-20 (ssRNA)
RNA: UUUAUUAUUUAUUUAUUUAG
apparent K (half saturation) [3]: 499 ± 37 nM
